Data taken from patent US20260070978A1 (LENTIGEN TECHNOLOGY, published 2026).
Changes are numbered by the printed parent chain.

T1: recombinant human CD19 (human, UniProt P15391 20-291, limits assumed, fluorescent label, kind and site not stated)
T1 construct: soluble labeled antigen titrated on yeast; sorting steps used CD19-Fc, so the labeled antigen may be the Fc fusion; also called labeled CD19; fluorescently tagged antigen
T1 sequence (looked up): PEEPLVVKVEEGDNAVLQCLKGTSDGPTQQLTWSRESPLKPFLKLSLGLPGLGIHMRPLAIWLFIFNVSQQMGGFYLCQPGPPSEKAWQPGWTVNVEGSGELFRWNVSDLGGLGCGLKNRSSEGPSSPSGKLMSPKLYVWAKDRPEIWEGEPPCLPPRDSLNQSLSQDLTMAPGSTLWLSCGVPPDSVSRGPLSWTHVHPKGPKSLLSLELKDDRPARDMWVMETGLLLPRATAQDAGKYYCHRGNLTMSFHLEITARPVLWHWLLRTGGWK

T2: recombinant human CD22 (human, UniProt P20273 20-687, limits assumed, fluorescent label, kind and site not stated)
T2 construct: soluble labeled antigen titrated on yeast; sorting steps used CD22-Fc, so the labeled antigen may be the Fc fusion; also called labeled CD22; fluorescently tagged antigen
T2 sequence (looked up): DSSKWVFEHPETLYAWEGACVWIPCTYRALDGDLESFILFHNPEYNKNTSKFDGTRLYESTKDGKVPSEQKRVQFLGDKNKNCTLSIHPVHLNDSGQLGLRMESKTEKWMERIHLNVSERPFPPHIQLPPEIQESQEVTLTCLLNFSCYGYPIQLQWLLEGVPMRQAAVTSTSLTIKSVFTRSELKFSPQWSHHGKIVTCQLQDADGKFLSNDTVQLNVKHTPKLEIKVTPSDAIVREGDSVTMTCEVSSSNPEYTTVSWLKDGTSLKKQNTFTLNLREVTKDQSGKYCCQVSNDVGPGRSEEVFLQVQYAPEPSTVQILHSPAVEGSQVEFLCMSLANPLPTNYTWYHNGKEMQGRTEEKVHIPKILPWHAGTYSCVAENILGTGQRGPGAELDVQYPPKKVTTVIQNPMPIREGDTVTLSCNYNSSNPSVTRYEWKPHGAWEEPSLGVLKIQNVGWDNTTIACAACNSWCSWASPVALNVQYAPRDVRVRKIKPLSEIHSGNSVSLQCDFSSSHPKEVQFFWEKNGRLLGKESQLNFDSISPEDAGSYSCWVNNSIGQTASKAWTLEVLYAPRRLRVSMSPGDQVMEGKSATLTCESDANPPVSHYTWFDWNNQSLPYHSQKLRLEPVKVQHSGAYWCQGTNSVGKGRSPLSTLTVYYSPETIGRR

B1: human anti-CD19 ScFv binder M19217 (scFv)
chain: EVQLVQSGAEVKKPGASVKVSCKASGYTFTSYYMHWVRQAPGQGLEWMGIINPSGGSTSYAQKFQGRVTMTRDTSTSTVYMELSSLRSEDTAVYYCARSDRGITATDAFDIWGQGTMVTVSSGGGGSGGGGSGGGGSQSVLTQPPSVSVAPGQTAKITCGGSDIGNKNVHWYQQKPGQAPVLVVYDDYDRPSGIPERFSGSNSGDAATLTISTVEVGDEADYFCQVWDSSGDPYWVFGGGTQLTVLG
B2: human anti-CD19 ScFv binder M19217-2 (scFv)
chain: B1 chain with L45F, I50L, G56S, S85N, S148P, T158I, S229G
B3: human anti-CD19 ScFv binder M19217-23 (scFv)
chain: B1 chain with S31G, M48I, I50L, A61E, T69A, N166D, S229G, S230I
B4: human anti-CD19 ScFv binder M19217-38 (scFv)
chain: B1 chain with K13R, Q43R, I50L, K63E, T74M, T104S, T154M, D189N, S229G, V245D
B5: human anti-CD19 ScFv binder M19217-29 (scFv)
chain: B1 chain with I50M, V169A, P195S, S229G, Y234F
B6: human anti-CD19 ScFv binder M19217-7 (scFv)
chain: B1 chain with K12N, I50M, A105S, V149L, D189N, A206S, S229G
B7: human anti-CD19 ScFv binder M19217-40 (scFv)
chain: B1 chain with K13R, E46V, I50L, I157T, F223V, S229G
B8: human anti-CD19 ScFv binder M19217-1 (scFv)
scFv: EVQLVQSGAEVKKPGASVKVSCKASGYTFTSYYMHWVRQAPGQGLEWMGLINPSGGSTSYAQKFQGRVTMTRDTSTSTVYMELSSLRSEDTAVYYCARSDRGITATDAFDIWGQGTMVTVSSGGGGSGGGGSGGGGSQSVLTQPPSVSVAPGRMAKITCGGSDIGNKNVHWYQQKPGQAPVLVVYDDYDRPSGIPERFSGSNSGDAATLTISTVEVGDEADYFCQVWDGSGDPYWMFGGGTQLTVL
notes: also called LTG2065
B9: human anti-CD22 ScFv binder 16P17 (scFv, V domains shown)
VH: QVQLQQSGPGLVKHSQTLSLTCAISGDSVSSNSAAWNWIRQSPSRGLEWLGRTYYRSKWYNDYAVSVKSRITINPDTSKNQFSLQLNSVTPEDTAVYYCAQEVEPHDAFDIWGQGTMVTVSS
VL: DIQMTQSPSSVYASVGDKVTITCRASQDVSGWLAWYQQKPGLAPQLLISGASTLQGEVPSRFSGSGSGTDFTLTISSLQPEDFATYYCQQAKYFPYTFGQGTKLEIK

What follows are binders tested against T1, recombinant human CD19 (assay: flow cytometry of yeast-displayed scFv with decreasing amounts of labeled CD19).
Experimental: To increase the affinity of m19217, a yeast-display m19217 mutant scFv library was created by using error-prone PCR to create random point mutations in scFv gene sequences. After electroporation, the resulting mutant library was then grown overnight at 30° C. for 16 hours in SDCAA medium and then switched into SGCAA medium at 30° C. for another 16 hours. The mutant library was then sorted through MACS (immunomagentic column, Miltenyi Biotec) with CD19-Fc as the capture antigen to downsize the library and to increase the population of mutants that could bind to CD19-Fc. The strongest binders were then selected by double staining the pools with Anti-c-Myc-Alexa 488 and CD19-Fc/Anti-Hu-Fc and selecting for the binders that had the highest binding affinities as well as c-Myc expression levels. This process was then repeated two more times, until flow cytometry of yeast particles with fluorescently tagged antigen yielded average binding affinities of the mutant pools that were increased over the starting construct. Binding affinities were estimated by flow cytometry of yeast pools using decreasing amounts of labeled CD19.
B1 was tested, and the EC50 was 0.5 µg/mL.
For B2, the EC50 was less than 0.01 µg/mL.
For B3, the EC50 was less than 0.01 µg/mL.
Work on B4 yielded an EC50 of less than 0.01 µg/mL.
B5 was tested, and the EC50 was less than 0.01 µg/mL.
Work on B6 yielded an EC50 of less than 0.01 µg/mL.
B7 was tested, and the EC50 was less than 0.01 µg/mL.
In the case of B8, the EC50 is reported as less than 0.01 µg/mL.

Each binder was assayed against T2, recombinant human CD22 (assay: flow cytometry of yeast-displayed scFv with decreasing amounts of labeled CD22).
Work on B9 yielded an EC50 of less than 0.01 µg/mL.
